B1: IL-4: recombinant mouse IL-4 from Bio-Techne Corp., co-administered with OXY-KLH (protein, UniProt P07750 21-140, looked up)
Interleukin-4: HIHGCDKNHLREIIGILNEVTGEGTPCTEMDVPNVLTATKNTTESELVCRASKVLRIFYLKHGKTPCLKKNSSVLMELQRLFRAFRCLDSSISCTMNESKSTSLKDFLESLKSIMQMDYS

Assays:
[1] = Pre-clinical toxicology: serum biochemistry parameters and body weight; assay type: in vivo, BALB/c mice
Method: Serum biochemistry parameters in BALB/C mice treated with KLH, OXY-KLH, anti-IL-4 mAb, or anti-IL-4 mAb plus OXY-KLH. […] The values for AST (aspartate aminotransferase) were higher among groups, perhaps as a result of muscle injury due from the injections.
(§1) Male BALB/c mice were immunized with KLH, OXY-KLH, anti-IL-4 mAb, or OXY-KLH plus anti-IL-4 mAb. The OXY-KLH and the unconjugated KLH control were administered subcutaneously on days 0, 14 and 28, while the anti-IL-4 mAb was administered intraperitoneally as in EXAMPLE 2. A week after the third immunization, mice were euthanized with CO2 to perform histopathology and clinical pathology by serum chemistry. Organs were harvested and preserved in 10% formaldehyde (methanol free, ultrapure EM grade, Polysciences, Inc., Warminster, PA), and sent to the University of Minnesota School of Veterinary Medicine for histology analysis in the laboratory of Dr. Davis Seelig. Serum was collected by centrifugation at 7500 rpm for three minutes at 4° C. and collected in lithium heparin ([…], Becton, Dickinson and Co., Franklin Lakes, NJ). Frozen samples were sent to Marshfield Labs (Marshfield, WI) for the panel tests analysis.

[2] = Histopathology across four treatment groups; assay type: in vivo, BALB/c mice
Method: FIG. 12. Co-administration of vaccines and an anti-IL-4 mAb is safe. Histopathology across four treatment groups. […] Occasionally, these regions of were centered on lymphocyte-rich lymphatic vessels. The severity of the lung pathology was similar across the four treatment groups.
as §1

6OXY-specific GC B cells = 6OXY-specific GC B cells by magnetic enrichment and flow cytometry after OXY-KLH with IL-4; assay type: in vivo, mice; details: IL-4 60,000 IU s.c. with OXY-KLH in alum, seven days after one immunization
From the text: FIG. 4. IL-4 increased vaccine-specific GC B cells and post-vaccination GC formation. Mice were immunized subcutaneously once with the OXY-KLH vaccine adsorbed in alum adjuvant with saline or IL-4 (60,000 IU, subcutaneously). At seven days after immunization, lymph nodes and spleens were collected for analysis of antigen-specific B cell populations. Using a two-step procedure, OXY-specific B cells were first isolated by magnetic enrichment using biotinylated oxycodone-based haptens conjugated to streptavidin (SA) conjugated to the fluorescent protein phycoerythrin (PE) or a decoy reagent, and then analyzed by multi-parameter flow cytometry. (A) 6OXY-specific CD38^neg GL7^high “committed” GC B cells; (B) 6OXY-specific CD38^+ GL7^+ “uncommitted” GC B cells; (C) Ratio of 6OXY-specific (CD38^neg) to (CD38^+) GL7^+ B cells, a measure of GC activation and B cell commitment to GC-dependent pathways; (D) 6OXY-specific IgM^high naive and memory B cells. Data shown are from two independent experiments and expressed as mean±SEM (n=10). […] Statistical symbols: *p<0.05, and […].
Mice were immunized subcutaneously once with OXY-KLH in alum adjuvant in combination with IL-4 (60,000 IU, Bio-Techne Corp., Minneapolis, MN). […]

[3] = serum, BALB/c mice, a week after third immunization, mean ± SEM

Molecule | Body weight ([1]; BALB/c mice, a week after third immunization, mean ± SEM) | Protein, bilirubin, ALT, urea nitrogen, and total cholesterol versus normal range ([1]; serum, BALB/C mice) | Values for AST (aspartate aminotransferase) ([1]; serum, BALB/C mice, perhaps muscle injury from the injections) | ALT [1, 3] | AST [1, 3] | Cholesterol [1, 3] | Total bilirubin [1, 3] | Total protein [1, 3] | Urea nitrogen [1, 3] | Histopathology, kidney, heart, thymus, stomach, small intestine, large intestine, and pancreas ([2]; mouse, in vivo) | Histopathology, spleen ([2]; mouse, in vivo) | Histopathology, liver (centrolobular hepatocytes) ([2]; similar in severity across four treatment groups) | Histopathology, lungs (interstitium) ([2]; with concurrent congestion, severity similar across the four treatment groups) | post-vaccination GC formation (fraction of subjects) (6OXY-specific GC B cells) | vaccine-specific GC B cells (6OXY-specific GC B cells)
keyhole limpet hemocyanin [KLH] | 26.5 ± 0.39 g | in the normal range | higher | 71.6 ± 3.2^ U/L | 626 ± 24.7 U/L | 161 ± 10.4 mg/dL | 0.2 ± 0.10 mg/dL | 5.7 ± 0.32 g/dL | 20 ± 1.5 mg/dL | No significant pathology | No significant pathology | occasionally moderate vacuolar change | mild to occasionally moderately increased numbers of inflammatory cells |  | 
B1 |  |  |  |  |  |  |  |  |  |  |  |  |  | increased | increased

Reference: patent publication US12070492B2, “Therapeutic compositions and methods with cytokine signaling immunomodulators” (Hennepin Healthcare Research Institute, priority 2016, dated 2024)
